Data as given in paper PMC9224490, “PLAAT1 Exhibits Phosphatidylcholine:Monolysocardiolipin Transacylase Activity” (International Journal of Molecular Sciences, 2022).

Experiments:
[1] = substrate: CCCCCCCC/C=C\CCCCCCCC(=O)OC[C@H](COP(=O)([O-])OCC[N+](C)(C)C)OC(=O)CCCCCCC/C=C\CCCCCCCC; assay: radiochemical PC:MLCL transacylase assay, TLC and scintillation counting, Lineweaver-Burk; format: biochemical, Mus musculus; conditions: labelled compound (3H), acyl donor 0-200 μM, acceptor MLCL 100 μM (methods text: 40 μM final), pH 8, 37 °C, 2 mM DTT, 0.1% Nonidet P-40, enzyme on anti-HA beads, apparent
Text: (§1) radiochemical PC:MLCL transacylase assay, TLC and scintillation counting, Lineweaver-Burk on PLAAT1

[2] = substrate: CCCCCCCCCCCCCCCCCC(=O)OC[C@H](COP(=O)([O-])OCC[N+](C)(C)C)OC(=O)CCCCCCCCCCCCCCCCC; assay: as above; format: biochemical, Mus musculus; conditions: labelled compound (3H), acyl donor 0-200 μM, acceptor MLCL 100 μM (methods text: 40 μM final), pH 8, 37 °C, 2 mM DTT, 0.1% Nonidet P-40, enzyme on anti-HA beads, apparent
Text: as §1

B1: PLAAT1 (Mus musculus) (protein)
chain: MAVNDCFSLTYPHNPHPGDLIEVFRPCYQHWALYLGDGYVINIAPIDGIRSSFTSAKSVFSTKALVKMQLLKDVVGNDTYRINNKYDTTYPPLPVEEVIQRSEFPIGQEVAYDLLVNNCEHFVTLLRYGEGVSEQANRAIGTIGLVAAGIDIFTFLGLFPKRQRTKY
notes: complete coding region; C-terminal 6xHis, HA-tagged; adenoviral expression in HEK-293; immunopurified on anti-HA beads
B1 was tested. Which Km [1] did it give?
The Km was 16 µM.

And the Vmax [1]?
Its Vmax is 0.61 µmol/min/mg.

And the Km [2]?
Its Km is 126 µM.

And the Vmax [2]?
Its Vmax is 1.61 µmol/min/mg.
